Measurements as given in article PMC3214066.

Target: Collagen S (soluble, type I, from calf skin) (calf) (UniProt P02453)
Assay: radioligand binding; collagen I monomers (5 µg/mL in 1% acetic acid + 1% NaCl) coated on 96-well plates, blocked with 1% BSA; 125I-labelled A1M (50×10^3 cpm) with increasing unlabelled A1M in PBS + 0.05% Tween, overnight at 4°C; Scatchard analysis

UniProt P02453, sequence (P02453 162-1217, chain 1 of 2): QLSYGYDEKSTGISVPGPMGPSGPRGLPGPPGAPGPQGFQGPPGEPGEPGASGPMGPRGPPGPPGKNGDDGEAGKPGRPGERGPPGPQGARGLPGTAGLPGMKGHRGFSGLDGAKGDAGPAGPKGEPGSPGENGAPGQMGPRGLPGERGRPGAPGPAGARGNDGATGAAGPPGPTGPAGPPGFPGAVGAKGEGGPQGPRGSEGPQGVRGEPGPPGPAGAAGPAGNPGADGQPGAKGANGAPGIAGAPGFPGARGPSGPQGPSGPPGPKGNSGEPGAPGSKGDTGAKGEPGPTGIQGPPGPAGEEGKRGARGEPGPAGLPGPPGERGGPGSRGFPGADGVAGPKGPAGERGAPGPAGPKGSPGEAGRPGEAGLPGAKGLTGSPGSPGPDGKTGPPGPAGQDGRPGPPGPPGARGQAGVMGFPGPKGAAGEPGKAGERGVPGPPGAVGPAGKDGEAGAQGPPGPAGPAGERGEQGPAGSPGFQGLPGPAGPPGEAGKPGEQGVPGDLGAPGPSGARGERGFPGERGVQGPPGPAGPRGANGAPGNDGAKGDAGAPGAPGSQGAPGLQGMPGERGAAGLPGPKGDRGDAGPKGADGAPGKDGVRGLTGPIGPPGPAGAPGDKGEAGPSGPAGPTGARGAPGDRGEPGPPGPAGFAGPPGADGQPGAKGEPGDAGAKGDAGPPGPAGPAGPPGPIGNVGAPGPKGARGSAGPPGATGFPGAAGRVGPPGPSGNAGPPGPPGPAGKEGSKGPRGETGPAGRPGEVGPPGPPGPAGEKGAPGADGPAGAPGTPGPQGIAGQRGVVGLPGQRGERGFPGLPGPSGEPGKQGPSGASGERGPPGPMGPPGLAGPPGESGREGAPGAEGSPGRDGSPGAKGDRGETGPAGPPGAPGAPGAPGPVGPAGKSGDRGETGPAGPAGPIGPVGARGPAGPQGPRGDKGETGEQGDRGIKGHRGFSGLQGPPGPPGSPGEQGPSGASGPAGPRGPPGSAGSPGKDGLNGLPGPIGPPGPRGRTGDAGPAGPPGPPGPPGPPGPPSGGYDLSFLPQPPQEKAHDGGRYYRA
UniProt P02453, sequence (P02465 80-1117, chain 2 of 2, further chain): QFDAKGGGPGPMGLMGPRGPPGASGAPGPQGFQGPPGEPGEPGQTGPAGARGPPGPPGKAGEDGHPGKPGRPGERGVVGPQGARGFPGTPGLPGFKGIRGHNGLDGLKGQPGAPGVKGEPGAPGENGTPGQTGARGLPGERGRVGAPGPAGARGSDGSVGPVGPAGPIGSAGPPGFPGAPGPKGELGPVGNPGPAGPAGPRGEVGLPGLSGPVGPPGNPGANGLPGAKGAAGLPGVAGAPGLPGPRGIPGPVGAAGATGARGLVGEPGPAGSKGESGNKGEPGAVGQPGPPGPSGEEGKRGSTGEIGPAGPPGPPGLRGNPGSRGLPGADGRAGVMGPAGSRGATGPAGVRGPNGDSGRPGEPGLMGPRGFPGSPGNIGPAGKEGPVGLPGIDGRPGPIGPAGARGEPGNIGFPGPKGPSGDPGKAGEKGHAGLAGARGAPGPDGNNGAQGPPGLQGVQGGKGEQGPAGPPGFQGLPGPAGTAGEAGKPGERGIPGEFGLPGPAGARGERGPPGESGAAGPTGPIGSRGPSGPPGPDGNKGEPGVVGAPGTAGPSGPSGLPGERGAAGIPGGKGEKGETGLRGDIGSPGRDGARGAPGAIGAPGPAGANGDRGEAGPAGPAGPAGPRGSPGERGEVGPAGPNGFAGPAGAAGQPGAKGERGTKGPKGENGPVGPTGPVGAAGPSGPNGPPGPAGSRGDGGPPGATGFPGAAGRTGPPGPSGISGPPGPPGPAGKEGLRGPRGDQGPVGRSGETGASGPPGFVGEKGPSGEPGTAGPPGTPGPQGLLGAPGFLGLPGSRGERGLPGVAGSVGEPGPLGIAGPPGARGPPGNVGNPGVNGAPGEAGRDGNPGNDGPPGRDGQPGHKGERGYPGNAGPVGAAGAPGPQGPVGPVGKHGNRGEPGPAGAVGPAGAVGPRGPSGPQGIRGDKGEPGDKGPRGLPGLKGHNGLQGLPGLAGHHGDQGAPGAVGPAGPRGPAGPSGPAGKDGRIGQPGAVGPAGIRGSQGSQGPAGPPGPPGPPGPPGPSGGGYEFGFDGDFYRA

B1: Recombinant human α1-microglobulin (A1M) (natural protein)
chain: GPVPTPPDNIQVQENFNISRIYGKWYNLAIGSTCPWLKKIMDRMTVSTLVLGEGATEAEISMTSTRWRKGVCEETSGAYEKTDTDGKFLYHKSKWNITMESYVVHTNYDEYAIFLTKKFSRHHGPTITAKLYGRAPQLRETLLQDFRVVAQGVGIPEDSIFTMADRGECVPGEQEPEPILIPRV
modifications: 125I label (chloramine T method) on the tracer in the solid phase binding assay; colloidal gold label (4-5 nm) in the electron microscopy binding experiment
For B1, the Kd was 960 nM.
